Data on one substance can be found in article PMC5296908.

The assay addresses ADAMTS17-PCD (human). As to the kind of experiment: SPR; ADAMTS17-PCD (3300 RU) or ADAMTS17-AD (2530 RU) amine-coupled to a CM5 chip, BIAcore 3000; analytes flowed at 20 μl/min; 25 °C; TBS with 2 mM CaCl2 and 0.005% SP20; 1:1 stoichiometry assumed. For orientation: Surface plasmon resonance follows binding to a sensor surface in real time, without labels.

A word on the Kd: it is the constant that tells how readily two partners part at equilibrium. Low readings indicate higher affinity, high ones lower affinity. As to ADAMTS17-PCD (domain or fragment), the dissociation constant Kd was 1400 nM.
